Consider 20 molecules from patent CN113980129A (DONGDA BIOTECHNOLOGY SUZHOU CO LTD, dated 2022).

Assay [1] deals with T1, 重组人IL-11 (recombinant human interleukin-11) (human, UniProt P20809 22-199).
T1 construct: Called recombinant human IL-11 as immunogen; the assays say only IL-11; also called IL-11抗原; IL-11-Biotin
T1 sequence (looked up): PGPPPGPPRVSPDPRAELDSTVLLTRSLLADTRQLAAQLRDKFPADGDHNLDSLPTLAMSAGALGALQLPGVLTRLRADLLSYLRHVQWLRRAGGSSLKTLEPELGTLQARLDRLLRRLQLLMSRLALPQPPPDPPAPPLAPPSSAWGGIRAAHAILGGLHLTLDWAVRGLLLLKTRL
The experiment in a line: SPR (Biacore), antibody captured on anti-human IgG CM5 chip, IL-11 as analyte. Background: In SPR one partner is held on a chip, and binding of the other changes the refractive index at the surface.

The target in assay [2] is T1, 重组人IL-11 (recombinant human …). The assay is described as follows: ELISA, IL-11 coated on plate. For orientation: ELISA stands for enzyme-linked immunosorbent assay.
Assay [3] shares this target. The assay is described as follows: cell-based or functional assay.
Assay [4] has the same target. The assay is described as follows: ELISA, IL-11 coated on plate. The source holds these as a separate data set.
Assay [5] shares this target. The assay is described as follows: FACS, blocking of IL-11-biotin binding to 293T-IL-11Rα/gp130 cells.

B1: hu16E12 E61Q N65G (antibody, V domains shown)
VH: QVQLVQSGAEVKKPGASVKVSCKASGYTFTSYYMYWVRQAPGQGLEWIGEINPSNGGTDFNQKFKGRVTMTVDTSISTAYMELSRLRSDDTAVYYCTREEIHYGYDKGFAYWGQGTLVTVSS
VL: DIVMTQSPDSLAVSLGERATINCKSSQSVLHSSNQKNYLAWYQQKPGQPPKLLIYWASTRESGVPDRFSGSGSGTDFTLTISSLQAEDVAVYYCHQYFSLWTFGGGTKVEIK
notes: CDR mutant of hu16E12 (IgG4); placed on VH (CDR2, probably Kabat) by inference
In the case of B1, in assay [1], the dissociation constant Kd (in general, the constant that tells how readily two partners part at equilibrium) was determined as 0.0363 nM; the koff (commonly a measure of how fast the partners let go of each other) came out at 8.54e-05 s⁻¹; the kon (commonly the second-order rate constant of association) worked out at 2.35e+06 M⁻¹ s⁻¹.

B2: hu16E12 L94H (antibody, V domains shown)
VH: QVQLVQSGAEVKKPGASVKVSCKASGYTFTSYYMYWVRQAPGQGLEWIGEINPSNGGTDFNEKFKNRVTMTVDTSISTAYMELSRLRSDDTAVYYCTREEIHYGYDKGFAYWGQGTLVTVSS
VL: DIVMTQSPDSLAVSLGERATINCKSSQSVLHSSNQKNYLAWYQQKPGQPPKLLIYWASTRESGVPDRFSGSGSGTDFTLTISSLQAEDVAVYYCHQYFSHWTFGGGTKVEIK
On to B2, for which, in assay [1], the Kd turned out to be 0.00187 nM, the koff amounted to 3.91e-06 s⁻¹ and the kon came out at 2.09e+06 M⁻¹ s⁻¹.

B3: hu16E12 N54S (antibody, V domains shown)
VH: QVQLVQSGAEVKKPGASVKVSCKASGYTFTSYYMYWVRQAPGQGLEWIGEINPSSGGTDFNEKFKNRVTMTVDTSISTAYMELSRLRSDDTAVYYCTREEIHYGYDKGFAYWGQGTLVTVSS
VL: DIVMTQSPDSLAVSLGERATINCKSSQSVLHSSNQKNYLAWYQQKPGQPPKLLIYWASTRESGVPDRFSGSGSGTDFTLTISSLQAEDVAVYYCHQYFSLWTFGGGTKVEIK
notes: as for B1
As for B3, in assay [1], the Kd worked out at 0.0245 nM, the koff turned out to be 7e-05 s⁻¹ and the kon is 2.86e+06 M⁻¹ s⁻¹.

B4: hu16E12 G55V (antibody, V domains shown)
VH: QVQLVQSGAEVKKPGASVKVSCKASGYTFTSYYMYWVRQAPGQGLEWIGEINPSNVGTDFNEKFKNRVTMTVDTSISTAYMELSRLRSDDTAVYYCTREEIHYGYDKGFAYWGQGTLVTVSS
VL: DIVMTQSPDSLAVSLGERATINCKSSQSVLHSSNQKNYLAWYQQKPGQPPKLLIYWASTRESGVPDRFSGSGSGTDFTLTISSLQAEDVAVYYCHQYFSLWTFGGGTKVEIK
notes: as for B1
Turning to B4, in assay [1], the Kd is 0.00387 nM, the off-rate constant (koff) was 9.32e-06 s⁻¹ and the on-rate (kon) was found to be 2.41e+06 M⁻¹ s⁻¹.

B5: hu16E12 N65G (antibody, V domains shown)
VH: QVQLVQSGAEVKKPGASVKVSCKASGYTFTSYYMYWVRQAPGQGLEWIGEINPSNGGTDFNEKFKGRVTMTVDTSISTAYMELSRLRSDDTAVYYCTREEIHYGYDKGFAYWGQGTLVTVSS
VL: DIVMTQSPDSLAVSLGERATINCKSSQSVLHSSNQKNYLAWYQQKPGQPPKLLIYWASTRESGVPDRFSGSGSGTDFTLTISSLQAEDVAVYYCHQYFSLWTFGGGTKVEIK
notes: as for B1
Turning to B5, in assay [1], the Kd stood at 0.0189 nM, the koff was 5.25e-05 s⁻¹ and the kon was determined as 2.78e+06 M⁻¹ s⁻¹.

B6: hu16E12 N54Q (antibody, V domains shown)
VH: QVQLVQSGAEVKKPGASVKVSCKASGYTFTSYYMYWVRQAPGQGLEWIGEINPSQGGTDFNEKFKNRVTMTVDTSISTAYMELSRLRSDDTAVYYCTREEIHYGYDKGFAYWGQGTLVTVSS
VL: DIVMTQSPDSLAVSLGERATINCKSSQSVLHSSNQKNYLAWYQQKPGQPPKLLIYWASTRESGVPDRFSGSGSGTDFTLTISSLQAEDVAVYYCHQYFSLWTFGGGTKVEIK
notes: as for B1
B6: in assay [1], the dissociation constant Kd stood at 0.0363 nM, the off-rate constant (koff) was 0.000101 s⁻¹ and the on-rate constant (kon) was found to be 2.78e+06 M⁻¹ s⁻¹.

B7: hu16E12 K64Q N65G (antibody, V domains shown)
VH: QVQLVQSGAEVKKPGASVKVSCKASGYTFTSYYMYWVRQAPGQGLEWIGEINPSNGGTDFNEKFQGRVTMTVDTSISTAYMELSRLRSDDTAVYYCTREEIHYGYDKGFAYWGQGTLVTVSS
VL: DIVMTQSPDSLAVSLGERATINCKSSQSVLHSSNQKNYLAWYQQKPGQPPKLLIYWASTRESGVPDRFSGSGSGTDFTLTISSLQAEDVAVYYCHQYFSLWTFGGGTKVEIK
notes: CDR mutant of hu16E12 (IgG4); placed on VH (CDR2, probably Kabat numbering) by inference
In the case of B7, in assay [1], the Kd turned out to be 0.0157 nM, the koff amounted to 5.76e-05 s⁻¹ and the kon is 3.68e+06 M⁻¹ s⁻¹.

B8: hu16E12 N60A N65G (antibody, V domains shown)
VH: QVQLVQSGAEVKKPGASVKVSCKASGYTFTSYYMYWVRQAPGQGLEWIGEINPSNGGTDFAEKFKGRVTMTVDTSISTAYMELSRLRSDDTAVYYCTREEIHYGYDKGFAYWGQGTLVTVSS
VL: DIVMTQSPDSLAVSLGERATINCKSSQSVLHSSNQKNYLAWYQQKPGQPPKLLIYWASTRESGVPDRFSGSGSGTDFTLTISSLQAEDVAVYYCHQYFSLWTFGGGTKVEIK
notes: as for B1
B8: in assay [1], the Kd was found to be 0.0268 nM, the koff worked out at 7.51e-05 s⁻¹ and the on-rate constant (kon) worked out at 2.81e+06 M⁻¹ s⁻¹.

B9: hu16E12 G55A (antibody, V domains shown)
VH: QVQLVQSGAEVKKPGASVKVSCKASGYTFTSYYMYWVRQAPGQGLEWIGEINPSNAGTDFNEKFKNRVTMTVDTSISTAYMELSRLRSDDTAVYYCTREEIHYGYDKGFAYWGQGTLVTVSS
VL: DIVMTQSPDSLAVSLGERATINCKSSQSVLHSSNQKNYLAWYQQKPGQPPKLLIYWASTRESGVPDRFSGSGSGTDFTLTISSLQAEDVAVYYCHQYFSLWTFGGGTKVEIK
notes: as for B1
On to B9, for which, in assay [1], the Kd turned out to be 0.012 nM, the koff turned out to be 3.56e-05 s⁻¹ and the kon turned out to be 2.96e+06 M⁻¹ s⁻¹.

B10: 16E12 (antibody, V domains shown)
VH: QVQLQQSGAELVKPGASVKLSCKASGYTFTSYYMYWVKQRPGQGLEWIGEINPSNGGTDFNEKFKNKATLTVDKSSSTAYMQLSSLTSEDSAVYYCTREEIHYGYDKGFAYWGQGTLVTVSA
VL: NIMMTQSPSSLAVSAGEKVTMSCKSSQSVLHSSNQKNYLAWYQQKPGQSPKLLIYWASTRESGVPDRFTGSGSGTDFTLTISSIQAEDLAVYYCHQYFSLWTFGGGTKLEIK
notes: Mouse hybridoma antibody purified on Protein A; also called 鼠源16E12
As for B10, the binding result in assay [2] is listed as “binds”.

B11: 18B6 (antibody, V domains shown)
VH: QVQLQQSGAELVKPGASVKLSCKASGYTFTNYYIYWMKQRPGQGLEWIGEINPSNGGTNFNEKFKSKATLTVDKSSSTAYMQLSSLTSEDSAVYFCSREEIHYGYDKGFAYWGQGTLVTVSA
VL: NIMMTQSPSYLAVSAGEKVTMSCKSSQSVLNSSNQKNYLAWYQQKPGQSPKLLIYWASIRESGVPDRFTGSGSGTDFTLTISSVQAEDLAVYFCHQYFSSWTFGGGTRLEIK
notes: Mouse hybridoma antibody purified on Protein A
With B11, the binding result in assay [2] is “binds”.

B12: 26A6 (antibody, V domains shown)
VH: QIQLVQSGPELKKPGETVKISCKASGYTFTNYGMNWVKQAPGKGLKWMGWINTNTGETTYAEEFKGRFAFSLEASVSTAHLQINNLKNEDTATYFCAKEDFYGMDYWGQGSSVTVSS
VL: NIVMTQTPKFLLVSAGDRVTMTCKASQSVSNDVVWYQQKPGQSPKLLIYYASNRYTGVPDRFIGSGYGTEFTFTISTVQAEDLAVYFCQQDYSFPYTFGGGTKLEIK
notes: as for B11
With B12, the binding result in assay [2] is “binds”.

B13: 14F6 (antibody, V domains shown)
VH: EVKLEESGGGLVQPGGSMKLSCVASGFTFSKYWMNWVRQSPEKGLEWVAEIRLKSDNYATQYAESVKGRFTMSRDDSKSSVYLQMKNLRAEDSGIYYCTKEGYDGYAMDYWGQGTSVTVSS
VL: RIVMTQTPKFLLVSAGDRVTITCKASQNINNDVVWYQQKPGQSPKLLIYYASNRYTGVPDRFTGSGYGTDFTFTISTVQAEDLAVYFCQQDYISPWTFGGGTKLEIK
notes: as for B11
For the molecule B13, in assay [2], the binding result is given as “binds”.

B14: 14E1 (antibody, V domains shown)
VH: EVQLQQSGPVLVKPGASVKMSCKASGYTFTDYYMNWVKQSHGKSLEWIGVFNPYNGGTVYNQKFKGKATLTVDKSSSTAYMELSSLTSEDSAVYYCAREDYGSYYVVFDYWGQGTTLTVSS
VL: QIVLSQSPAILSASPGEKVTMTCRASSSVSYMHWYQQKPGSSPKPWIYATSNLASGVPARFSGSGSGTSYSLTISRVEAEDAATYYCQHWSSNPLTFGAGTKLELK
notes: as for B11
Turning to B14, the binding result in assay [2] is on record as “binds”.

B15: Control-3C6 (antibody, V domains shown)
VH: EVQLVQSGAEVKKPGASVKISCKASGYTFTDYNMDWVKQAPGQRLEWIGDINPHNGGPIYNQKFTGRATLTVDKSASTAYMELSSLRSEDTAVYYCARGELGHWYFDVWGQGTTVTVSS
VL: DIVLTQSPASLALSPGERATLSCRASKSVSTSGYSYIHWYQQKPGQAPRLLIYLASNLDSGVPARFSGSGSGTDFTLTISSLEEEDFATYYCQHSRDLPPTFGQGTKLEIKR
For B15, the “IC50, STAT3 luciferase reporter in DLD1-IL-11R-pSTAT3-Luc cells” value in assay [3] worked out at 178 ng/mL. Further, the 50% effective concentration (EC50) (usually the concentration needed to bring the measured effect to its halfway point) in assay [4] was 22.5 µg/mL. In addition, the IC50 – broadly, the midpoint of a concentration-inhibition curve – in assay [5] was 4.19 µg/mL.

B16: 10C2 (antibody, V domains shown)
VH: QVHLQQSGTELMKPGASVKISCKAPGYTFSSYWIEWVKQRPGHGLEWIGEILPGSGNTNYNEKFKGKATFTADTSSNTAYMQLSSLTSEDSAVYYCASPSSTVDYAMDYWGQGTSVTVSS
VL: DIVLTQSPASLGVSLGQRATISCRASRSVSTSGYNYMHWYQQKPGQPPKLLIFLASNLESGVPARFSGSGSGTDFTLNIHPVEEEDAATYHCQHSRELPYTFGGGTKLEIK
notes: Mouse hybridoma antibody purified on Protein A; also called 鼠源10C2
B16: in assay [2], the binding result is recorded as “binds”.

B17: 6B9 (antibody, V domains shown)
VH: EVQLVESGGGSVKPGGSLKLSCAASGFTFSNYAMSWVRQSPEKRLEWVAEISNGGSYTYYPDTVTGRFTISRDNAKNTLYLEMSSLRSEDTAMYYCVRHYDGYYGGILDFAMDYWGQGTSVTVSS
VL: DIQMTQSPSSLSASLGGKVTITCKASQDINKCIAWYQHKPGKGPRLLIHYTSTLQPGIPSRFSGSGSGRDYSFTISNLEPEDIATYYCLQYDYLHTFGGGTKLEIK
notes: as for B11
On to B17, for which the binding result in assay [2] is on record as “binds”.

B18: 1D12 (antibody, V domains shown)
VH: EVQLQQFGAELVKPGAAVKISCKASGYTFTDYNMDWVRQSHGKSLEWIGEINPNYDSTRYNQKFKGKATLTVDKSSSTAYMELRSLTSEDTAVYYCARSDYYAMDYWGQGTSVTVSS
VL: SIVMTQTPSFLLVSAGDRVTITCKASQSVSNDVAWYQQKPGQSPKLLIYYASNRFTGVPDRFTGSGFGTDFTFTISTVQTGDLAVYFCRQDYISPYTFGGGTKLEIK
notes: as for B11
Regarding B18, in assay [2], the binding result is given as “binds”.

B19: 16F3 (antibody, V domains shown)
VH: QVQLQQSGAELVRPGVSVKISCKGSGDTFTDYAMHWVKQSHAKSLEWIGVISTYYGDVSYNQKFKGKATMTVDKSSSTAYMELVRLTSEDSAIYYCARGYYDYAWFAYWGQGTLVTVSA
VL: QIVLTQSPAIMSASPGEKVTMTCSASSSLNYMHWYQQKSGTSPKRWIYDTSKLASGVPARFSGSGSGTSYSLTISSMEAEDAATYYCQQWSSNPLTFGAGTKLELK
notes: as for B11
As for B19, the binding result in assay [2] is on record as “binds”.

B20: 4A2 (antibody, V domains shown)
VH: QVQLQQSGGELVRPGVSVKISCKGSGYKITDYAMHWVKQSHAESLEWIGVISSYYGDTSYNQKFKGKATMTVDISSSTAYMEIARLTSEDSAIYYCAIGLWDVGYFDYWGQGTTLTVSS
VL: QIVLTQSPAIMSASPGEKVTMTCSASSSVSYMQWYQQKSGTSPKRWIYDTSKLASGVPARFSGSGSGTSYSLTISSMEAEDAATYYCQQWVSKAVTFGSGTKLEIK
notes: as for B11
With B20, in assay [2], the binding result was “binds”.
